Patent US20070014767A1

Columns and labels:
[1] = target: TGFβ1 (human recombinant) (human) (UniProt P01137); assay: cell-based or functional assay
[2] = target: TGFβ1 (human recombinant) (human) (UniProt P01137); assay: affinity labelling of MV-1-Lu cells with 125I-TGFβ1, titration of P144; details: scale: times the molar concentration of 125I-TGFβ1
[3] = target: TGFβ1 (human recombinant) (human) (UniProt P01137); assay: flow cytometry; inhibition of binding of TGFβ1-biotin to MV-1-Lu cell receptors, peptide 420 µg/ml, peptide incubated with TGFβ1-biotin
[4] = target: TGFβ1 cell receptors on MV-1-Lu cells (mink); assay: cell-based or functional assay
[5] = target: TGFβ1 cell receptors on MV-1-Lu cells (mink); assay: flow cytometry; inhibition of binding of TGFβ1-biotin to MV-1-Lu cell receptors, peptide 420 µg/ml, peptide incubated with the cells

Sequence of TGFβ1 (human recombinant) (human) (P01137 279-390 limits assumed): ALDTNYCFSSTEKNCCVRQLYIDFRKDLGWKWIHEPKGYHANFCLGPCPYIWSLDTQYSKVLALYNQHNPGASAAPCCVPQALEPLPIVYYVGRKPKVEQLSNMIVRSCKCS

| Molecule | Bioassay (% inhibition) of TGFβ1 activity: growth of MV-1-Lu cells, TGFβ1 200 pg/ml, peptide 200 µg/ml [1] [%] | peptide concentration at which inhibition of 125I-TGFβ1 binding to the cell receptors is lost [2] | Cytometry (% inhibition) [3] [%] | Bioassay (% inhibition) of TGFβ1 activity: growth of MV-1-Lu cells, TGFβ1 200 pg/ml, peptide 200 µg/ml [4] [%] | Cytometry (% inhibition) [5] [%] |
| --- | --- | --- | --- | --- | --- |
| FCLGPCPYIWSLDTA [peptide P12(322-335)] |  |  |  | 96 | 77 |
| LYNQHNPGASAAPCCA [peptide P18(343-358)] |  |  |  | 18.2 | 6.5 |
| HANFCLGPCPYIWSLA [peptide P11(319-333)] |  |  |  | 40 | 86 |

The remaining lines, values ahead:

| Bioassay (% inhibition) of TGFβ1 activity: growth of MV-1-Lu cells, TGFβ1 200 pg/ml, peptide 200 µg/ml [1] [%] | peptide concentration at which inhibition of 125I-TGFβ1 binding to the cell receptors is lost [2] | Cytometry (% inhibition) [3] [%] | Bioassay (% inhibition) of TGFβ1 activity: growth of MV-1-Lu cells, TGFβ1 200 pg/ml, peptide 200 µg/ml [4] [%] | Cytometry (% inhibition) [5] [%] | Molecule |
| --- | --- | --- | --- | --- | --- |
| 88 | 200000 | 80 |  |  | peptide P144(729-742) |
|  |  |  | 77.6 | 92.3 | HEPKGYHANFCLGPCPYIWSLDT [peptide P29(313-335)] |
